Results on nine molecules are retold here after publication PMC4100105, “A Novel VHH Antibody Targeting the B Cell-Activating Factor for B-Cell Lymphoma” (International Journal of Molecular Sciences, 2014).

The target in assay [1] is T1, B cell-activating factor (BAFF) (UniProt Q9Y275, biotin (NHS-LC-Biotin, 3:1 molar ratio of biotin to protein) in the BLI assay; not biotinylated when coated on ELISA plates).
Target sequence in this assay (Q9Y275 134-285): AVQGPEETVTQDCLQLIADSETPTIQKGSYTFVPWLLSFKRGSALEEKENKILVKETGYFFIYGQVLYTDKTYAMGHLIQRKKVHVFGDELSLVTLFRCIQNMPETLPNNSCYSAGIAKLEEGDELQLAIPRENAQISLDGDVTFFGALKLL
The target of assay [2] is T1, B cell-activating factor (BAFF). As to the kind of experiment: BLI; Octet RED; biotinylated BAFF (20 ug/mL) loaded on streptavidin biosensors; sdAbs 1.25-20 uM as analyte; PBST (PBS pH 7.4, 0.1% BSA, 0.02% Tween-20); room temperature; association 300 s, dissociation 1500 s; global 1:1 fit; 'relative affinity'. To be noted: both partners purified.
The target is the same in assay [3]. As to the kind of experiment: cell-based or functional assay.
Assay [4] has the same target. As to the kind of experiment: ELISA; competition ELISA; BAFF (10 ug/mL) coated; sdAb (0-100 ug/mL) mixed with TACI (10 ug/mL), 2 h at 37 C; bound TACI detected with HRP goat anti-human IgG. Particulars: both partners purified.
Assay [5] has the same target. As to the kind of experiment: ELISA; competition ELISA; BAFF (10 ug/mL) coated; sdAb (0-500 ug/mL) mixed with BCMA (50 ug/mL), 2 h at 37 C; bound BCMA detected with HRP goat anti-human IgG. Particulars: both partners purified.

B1: baffh1 (VHH)
VHH: HVQLVDSGGGSVQTGDSLTLSCVQSGRTFRSYAMAWYRQAPGKERELVARISSGYSTNYLDSVKGRFTISRDNDKNTFYLQMNSLRPEDTAVYYCNSALNGRLPGRHWGQGTQVTVSS
With B1, the binding result in assay [1] is reported as “binds”.

B2: baff41 (VHH)
VHH: HVQLVDSGGGLVQPGGSLRLSCTASGRTFRDYAMGWFRQAPGKEREFVAAIIGRGASTQYADFVKGRFTISRDNAKNTVYLQMNSLRPEDTAVYYCHAYDPRRNGDYWGQGTQVTVSS
With B2, the binding result in assay [1] was “binds”.

B3: baffb11 (VHH)
VHH: HVQLVDSGGGLVQAGGSLRLSCAASGRTFSSYAMGWFRQAPGKEREFVAAISWSGGRTYYADSVKGRFTISRNNAKNTVYLQMNNLKPEDAAVYYCAARSRASLSGTPLSSPSYYRYWGQGTQVTVSS
With B3, the binding result in assay [1] was “binds”.

B4: anti-BAFF52 (VHH)
VHH: HVQLVDSGGGLVQAGGSLRLSCAASGRSFKNYHMGWFRQAPGKEREFVAAINGRGSRTKYADSVKGRFTISRDNAERTVRLEMNSLKPEDTAVYYCAAGGPEFYRGRLEDYAYWGPGTQVTVSS
notes: Soluble sdAb of about 15 kDa from an immune alpaca library; also called clone 52; anti-BAFF52 sdAb; source: E. coli TG1, periplasm, vector pSJF2, purified (Ni-NTA)
As to B4, in assay [2], the Kd stood at 3180 nM, the koff is 0.0182 s⁻¹ and the kon turned out to be 5710 M⁻¹ s⁻¹.

B5: baffb2 (VHH)
VHH: HVQLVDSGGGLVQAGGSLRLSCAASGRSFRRYAMAWFRQTPGKEREFVAAISRSGGSTSYADSVKGRFTISRDNVKNTVYLQMNSLKPEDTAIYYCAADRWGSPTDLRLPRELDYWGQGTHVTVSS
Take B5: in assay [1], the binding result is reported as “binds”.

B6: bafff4 (VHH)
VHH: HVQLVDSGGGLVQAGGSLRLSCTVSGRTSRYAMAWFRQAPGKGREFVAGVNRSGGRPNYSNSVKGRFTISRDNAKNTVYLQMNGLKPEDTAVYYCAAEDRISQSYEYWGQGTQVTVSS
With B6, the binding result in assay [1] is on record as “binds”.

B7: anti-BAFF64 (VHH)
VHH: QVQLVDSGGGLVQAGGSLRLSCVASGALISRRGMGWYRQAPGRQRELVAGISSDGTTNYAQSVEGRFTISRDNAKRSVYLQMNSLKPEDTAVYYCHARTRWKSYWGQGTQVTVSS
notes: Soluble sdAb of about 15 kDa from an immune alpaca library; also called clone 64; anti-BAFF64 sdAb; source: E. coli TG1, periplasm, vector pSJF2, purified (Ni-NTA)
For the molecule B7, in assay [2], the Kd amounted to 319 nM, the koff was found to be 0.000729 s⁻¹ and the kon came to 2290 M⁻¹ s⁻¹. In addition, the “inhibitory ratio of BAFF-induced (750 ng/mL) Raji cell proliferation, CCK-8 assay, sdAb 0-100 ug/mL; value at 100 ug/mL” value in assay [3] turned out to be 55%. For the same molecule, the “inhibition ratio of TACI binding to BAFF at 100 ug/mL sdAb” value in assay [4] was determined as 31%.

B8: baffc6 (VHH)
VHH: HVQLVDSGGGLVQAGGSLRLSCAAPRNTFSRYAMAWYRQAPGKRRESVASISSGGISHYTDSVKGRFTISRDNAKNTVYLQMNSLKPEDSAVYYCAASREWGLLRHRPGYWGQGTQVTVSS
Turning to B8, the binding result in assay [1] is listed as “binds”.

B9: anti-BAFFG3 (VHH)
VHH: HVQLVDSGGGLVAGGSLRLSCAASGRTFSMSAVAWFRQAPGKEREFVAAISKSSISTYYADSVKGRFTISRDNARNTVNLQMNSLKPEDTAVYYCNSALNGRLPGRHWGQGTQVTVSS
notes: Soluble sdAb of about 15 kDa from an immune alpaca library; also called clone G3; anti-BAFFG3 sdAb; source: E. coli TG1, periplasm, vector pSJF2, purified (Ni-NTA)
In the case of B9, in assay [2], the Kd came to 823 nM, the koff came out at 0.00239 s⁻¹ and the kon is 2900 M⁻¹ s⁻¹. Also, the “inhibition ratio of BCMA binding to BAFF at 500 ug/mL sdAb” value in assay [5] worked out at 33%.

What is called Kd is a measure of binding affinity in units of concentration. The term koff denotes a measure of how fast the partners let go of each other. As usually defined, the kon is a measure of how fast the partners come together.
